Legend:
Test in all cases: cell-based or functional assay
[1] = target: HIV-1 Env of pseudovirus CNE17 (HIV-1)
[2] = target: HIV-1 Env of pseudovirus ZM233M.PB6 (HIV-1)
[3] = target: HIV-1 Env of pseudovirus Ce0393_C3 (HIV-1)
[4] = target: HIV-1 Env of pseudovirus Ce2010_F5 (HIV-1)
[5] = target: HIV-1 Env of pseudovirus Ce704809221_1B3 (HIV-1)
[6] = target: HIV-1 Env of pseudovirus 1056_10_TA11_1826 (HIV-1)
[7] = target: HIV-1 Env of pseudovirus Q842.d12 (HIV-1)
[8] = target: HIV-1 Env of pseudovirus AC10.0.29 (HIV-1)
[9] = target: HIV-1 Env of pseudovirus HIV-0013095-2.11 (HIV-1)
[10] = target: HIV-1 Env of pseudovirus 1006_11_C3_1601 (HIV-1)
[11] = target: HIV-1 Env of pseudovirus RHPA4259.7 (HIV-1)
[12] = target: HIV-1 Env of pseudovirus CNE8 (HIV-1)
[13] = target: HIV-1 Env of pseudovirus QH0692.42 (HIV-1)
[14] = target: HIV-1 Env of pseudovirus TRJO4551.58 (HIV-1)
[15] = target: HIV-1 Env of pseudovirus ZM135M.PL10a (HIV-1)
[16] = target: HIV-1 Env of pseudovirus Du172.17 (HIV-1)
[17] = target: HIV-1 Env of pseudovirus Du422.1 (HIV-1)
[18] = target: HIV-1 Env of pseudovirus 1012_11_TC21_3257 (HIV-1)
[19] = target: HIV-1 Env of pseudovirus CAP45.2.00.G3 (HIV-1)
[20] = target: HIV-1 Env of pseudovirus ZM214M.PL15 (HIV-1)
[21] = target: HIV-1 Env of pseudovirus 249M B10 (HIV-1)
[22] = target: HIV-1 Env of pseudovirus ZM197M.PB7 (HIV-1)
[23] = target: HIV-1 Env of pseudovirus Q259.d2.17 (HIV-1)
[24] = target: HIV-1 Env of pseudovirus ZM109F.PB4 (HIV-1)
[25] = target: HIV-1 Env of pseudovirus WEAU_d15_410_787 (HIV-1)
[26] = target: HIV-1 Env of pseudovirus CNE58 (HIV-1)
[27] = target: HIV-1 Env of pseudovirus BF1266.431a (HIV-1)
[28] = target: HIV-1 Env of pseudovirus ZM249M.PL1 (HIV-1)
[29] = target: HIV-1 Env of pseudovirus Ce2060_G9 (HIV-1)
[30] = target: HIV-1 Env of pseudovirus Q461.e2 (HIV-1)
[31] = target: HIV-1 Env of pseudovirus MS208.A1 (HIV-1)
[32] = target: HIV-1 Env of pseudovirus CNE5 (HIV-1)
[33] = target: HIV-1 Env of pseudovirus 6240_08_TA5_4622 (HIV-1)
[34] = target: HIV-1 Env of pseudovirus CNE53 (HIV-1)
[35] = target: HIV-1 Env of pseudovirus 6244_13_B5_4576 (HIV-1)
[36] = target: HIV-1 Env of pseudovirus 62357_14_D3_4589 (HIV-1)
[37] = target: HIV-1 Env of pseudovirus ZM53M.PB12 (HIV-1)
[38] = target: HIV-1 Env of pseudovirus 7030102001E5(Rev-) (HIV-1)

PGDM1400 (antibody)
neutralization IC50 [1]: 0.007 µg/mL
neutralization IC80 [1]: 0.021 µg/mL
neutralization IC50 [2]: < 0.001 µg/mL
neutralization IC80 [2]: 0.001 µg/mL
neutralization IC50 [3]: 0.015 µg/mL
neutralization IC80 [3]: 0.044 µg/mL
neutralization IC50 [4]: > 50 µg/mL
neutralization IC80 [4]: > 50 µg/mL
neutralization IC50 [5]: 0.28 µg/mL
neutralization IC80 [5]: 1.1 µg/mL
neutralization IC50 [6]: 3.26 µg/mL
neutralization IC80 [6]: 11.8 µg/mL
neutralization IC50 [7]: < 0.001 µg/mL
neutralization IC80 [7]: 0.002 µg/mL
neutralization IC50 [8]: 0.105 µg/mL
neutralization IC80 [8]: 0.869 µg/mL
neutralization IC50 [9]: 0.003 µg/mL
neutralization IC80 [9]: 0.012 µg/mL
neutralization IC50 [10]: 4.32 µg/mL
neutralization IC80 [10]: > 50 µg/mL
neutralization IC50 [11]: 0.447 µg/mL
neutralization IC80 [11]: 2.19 µg/mL
IC50 (Titer in TZM.bl cells) [12]: < 0.001 µg/mL
IC80 (Titer in TZM.bl cells) [12]: 0.01 µg/mL
neutralization IC50 [13]: > 50 µg/mL
neutralization IC80 [13]: > 50 µg/mL
neutralization IC50 [14]: > 50 µg/mL
neutralization IC80 [14]: > 50 µg/mL
neutralization IC50 [15]: > 50 µg/mL
neutralization IC80 [15]: > 50 µg/mL
neutralization IC50 [16]: 5.18 µg/mL
neutralization IC80 [16]: 22 µg/mL
neutralization IC50 [17]: 0.694 µg/mL
neutralization IC80 [17]: > 50 µg/mL
neutralization IC50 [18]: 0.049 µg/mL
neutralization IC80 [18]: 0.23 µg/mL
neutralization IC50 [19]: < 0.001 µg/mL
neutralization IC80 [19]: 0.002 µg/mL
neutralization IC50 [20]: > 50 µg/mL
neutralization IC80 [20]: > 50 µg/mL
neutralization IC50 [21]: 0.039 µg/mL
neutralization IC80 [21]: 0.786 µg/mL
neutralization IC50 [22]: 0.063 µg/mL
neutralization IC80 [22]: 0.285 µg/mL
neutralization IC50 [23]: 0.166 µg/mL
neutralization IC80 [23]: > 50 µg/mL
neutralization IC50 [24]: 0.057 µg/mL
neutralization IC80 [24]: 0.382 µg/mL
neutralization IC50 [25]: 0.103 µg/mL
neutralization IC80 [25]: 1.37 µg/mL
neutralization IC50 [26]: 0.004 µg/mL
neutralization IC80 [26]: 0.014 µg/mL
neutralization IC50 [27]: 0.003 µg/mL
neutralization IC80 [27]: 0.011 µg/mL
neutralization IC50 [28]: 0.016 µg/mL
neutralization IC80 [28]: 0.701 µg/mL
neutralization IC50 [29]: 0.001 µg/mL
neutralization IC80 [29]: 0.007 µg/mL
neutralization IC50 [30]: 0.089 µg/mL
neutralization IC80 [30]: 0.572 µg/mL
neutralization IC50 [31]: < 0.001 µg/mL
neutralization IC80 [31]: 0.139 µg/mL
IC50 (Titer in TZM.bl cells) [32]: < 0.001 µg/mL
IC80 (Titer in TZM.bl cells) [32]: < 0.001 µg/mL
neutralization IC50 [33]: > 50 µg/mL
neutralization IC80 [33]: > 50 µg/mL
neutralization IC50 [34]: 0.077 µg/mL
neutralization IC80 [34]: 0.246 µg/mL
neutralization IC50 [35]: > 50 µg/mL
neutralization IC80 [35]: > 50 µg/mL
neutralization IC50 [36]: > 50 µg/mL
neutralization IC80 [36]: > 50 µg/mL
neutralization IC50 [37]: 0.002 µg/mL
neutralization IC80 [37]: 0.011 µg/mL
neutralization IC50 [38]: > 50 µg/mL
neutralization IC80 [38]: > 50 µg/mL

From US20240117018A1
